{"source": "patent US20200155648A1", "about": "(CHILDREN S MEDICAL CENTER, published 2020)", "target": "T1, rhVEGFR1-Fc (R&D Systems, Minneapolis, Minn.) (human, UniProt P17948-2 27-687, limits assumed)", "T1 construct": "It was captured on plates by an anti-Fc antibody; also called Flt-1; not shown: Fc part of the bought fusion", "T1 sequence (P17948 other isoform, or with tags, fused parts or gaps limits assumed)": "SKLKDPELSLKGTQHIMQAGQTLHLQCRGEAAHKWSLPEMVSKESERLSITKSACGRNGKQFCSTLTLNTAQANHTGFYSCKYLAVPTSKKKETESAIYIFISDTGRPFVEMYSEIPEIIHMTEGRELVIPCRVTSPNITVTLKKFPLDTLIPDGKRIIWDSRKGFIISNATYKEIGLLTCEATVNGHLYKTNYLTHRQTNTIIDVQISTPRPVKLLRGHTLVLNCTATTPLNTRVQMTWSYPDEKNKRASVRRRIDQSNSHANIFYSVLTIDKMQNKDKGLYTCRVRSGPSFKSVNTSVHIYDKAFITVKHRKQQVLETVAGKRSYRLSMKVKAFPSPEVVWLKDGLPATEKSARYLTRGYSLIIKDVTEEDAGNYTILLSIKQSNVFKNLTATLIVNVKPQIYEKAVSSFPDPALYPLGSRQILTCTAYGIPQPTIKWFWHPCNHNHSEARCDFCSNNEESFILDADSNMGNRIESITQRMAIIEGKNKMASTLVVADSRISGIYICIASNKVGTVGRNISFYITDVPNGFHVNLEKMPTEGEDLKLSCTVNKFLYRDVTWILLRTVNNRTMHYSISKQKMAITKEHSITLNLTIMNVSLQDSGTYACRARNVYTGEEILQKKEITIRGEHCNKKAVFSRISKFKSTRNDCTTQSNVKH", "assay": "cell-free plate assay: rhVEGFR1-Fc captured by anti-Fc, VEGF165 titrated, Kd from the double reciprocal plot; heparin level not given", "protocol": "Plates were washed five times with wash buffer (0.05% Tween-20 in PBS, pH 7.2-7.4) the next morning and blocked with blocking buffer (2% bovine serum albumin and 0.05% Tween-20 in PBS) for 1 hour at 37° C. […] Substrate reaction was stopped with 2N sulfuric acid and the signal was visualized with a FLUOstar Omega microplate reader (BMG Labtech, Cary, N.C.) at 450 nm.\nAll other outcomes were analyzed with analysis of variance."}
{"binder": "rhVEGF-165 (Shire, Lexington, Mass.) (ligand) APMAEGGGQNHHEVVKFMDVYQRSYCHPIETLVDIFQEYPDEIEYIFKPSCVPLMRCGGCCNDEGLECVPTEESNITMQIMRIKPHQGQHIGEMSFLQHNKCECRPKKDRARQENPCGPCSERRKHLFVQDPQTCKCSCKNTDSRCKARQLELNERTCRCDKPRR", "values": [{"measurement": "Kd", "result": 8.14, "unit": "ng/mL"}]}
